PMC2861713

Tests used:
[1] = biological target: (His)10-p34ΔN/ΔC (p34 residues 37–292 linked to a 10 histidine tag) (Helicobacter pylori); assay: SEC; in the presence of 4 M urea; Superose 6 10/300 GL for (His)10-p34, Superose 12 10/300 GL (1.0 ml/min) for (His)10-p34ΔN/ΔC; mass against marker proteins
[2] = biological target: (His)10-p34(37–319) (Helicobacter pylori); assay: as above
[3] = biological target: (His)10-p34(37–319) (Helicobacter pylori); assay: SEC; Superose 6 10/300 GL, in the presence of 2 M urea
[4] = biological target: (His)10-p34(37–319) (Helicobacter pylori); assay: SEC; Superose 6 10/300 GL, 0.5 ml/min, in the presence of 10% glycerol; mass from the Kav of the most prominent peak against marker proteins

Row | Substance | stoichiometry N [1] [subunits] | stoichiometry N [2] [subunits] | stoichiometry N [3] [subunits] | stoichiometry N [4] [subunits]
1 | (His)10-p34ΔN/ΔC (p34 residues 37–292 linked to a 10 histidine tag) (domain or fragment) | 6 |  |  | 
2 | (His)10-p34(37–319) (domain or fragment) |  | 6 | 6 | 6
